# Measured values published in the supplement of paper PMC7125110.
# ± gives the standard error. Fewer inactive variants are shown than the library holds.
# B1: glmS ribozyme (parent)
# chain: AUAAAAGCGCCAGAACUACAGAAAUGUAGUUGACGAGGAGGAGGUUUAUCGAAUUUUCGGCGGAUGCCUCCAAA
# Experiments:
# Conditions in all cases: with glucosamine-6-phosphate
# glucosamine-6-phosphate [1] = variants of: B1; experiment: self-cleavage kobs at 40 uM GlcN6P; higher = faster cleavage; RNA array
# How it was run: (§1)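 Barcoded ribozyme variants, transcribed in situ by E. coli RNA polymerase on sequenced MiSeq chips, were followed via a hybridised Cy3 probe at 37 °C. Glucosamine-6-phosphate ranged from 40 μM to 10 mM in HEPES/KCl/Mg(OAc)2 buffer. kobs came from decay fits to per-tile medians, and kcat and KM from weighted Michaelis–Menten fits.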
# glucosamine-6-phosphate [2] = variants of: B1; experiment: self-cleavage kobs at 160 uM GlcN6P; higher = faster cleavage; RNA array
# How it was run: as §1
# glucosamine-6-phosphate [3] = variants of: B1; experiment: self-cleavage kobs at 640 uM GlcN6P; higher = faster cleavage; RNA array
# How it was run: as §1
# glucosamine-6-phosphate [4] = variants of: B1; experiment: self-cleavage kobs at 2500 uM GlcN6P; higher = faster cleavage; RNA array
# How it was run: as §1
# glucosamine-6-phosphate [5] = variants of: B1; experiment: self-cleavage kobs at 10000 uM GlcN6P; higher = faster cleavage; RNA array
# How it was run: as §1
Variant,self-cleavage kobs at 40 uM GlcN6P (glucosamine-6-phosphate [1]),self-cleavage kobs at 160 uM GlcN6P (glucosamine-6-phosphate [2]),self-cleavage kobs at 640 uM GlcN6P (glucosamine-6-phosphate [3]),self-cleavage kobs at 2500 uM GlcN6P (glucosamine-6-phosphate [4]),self-cleavage kobs at 10000 uM GlcN6P (glucosamine-6-phosphate [5])
G62A A64G,< 1e-05 s⁻¹,–,–,–,–
G43U C61U,< 1e-05 s⁻¹,< 1e-05 s⁻¹,< 1e-05 s⁻¹,< 1e-05 s⁻¹,< 1e-05 s⁻¹
G7C U56A G60U G62A,< 1e-05 s⁻¹,–,–,–,–
G32U G62U,< 1e-05 s⁻¹,< 1e-05 s⁻¹,< 1e-05 s⁻¹,< 1e-05 s⁻¹,< 1e-05 s⁻¹
G7A C34A,< 1e-05 s⁻¹,< 1e-05 s⁻¹,< 1e-05 s⁻¹,< 1e-05 s⁻¹,< 1e-05 s⁻¹
A42G U46C A48U,< 1e-05 s⁻¹,–,–,–,–
G9U A15U G41A U55A G60A,< 1e-05 s⁻¹,–,–,–,< 1e-05 s⁻¹
U46G C58U,< 1e-05 s⁻¹,–,–,–,–
U47C G63C,< 1e-05 s⁻¹,–,< 1e-05 s⁻¹,< 1e-05 s⁻¹,< 1e-05 s⁻¹
G7U A14G,< 1e-05 s⁻¹,< 1e-05 s⁻¹,< 1e-05 s⁻¹,–,< 1e-05 s⁻¹
G32U C34U,< 1e-05 s⁻¹,< 1e-05 s⁻¹,< 1e-05 s⁻¹,–,< 1e-05 s⁻¹
C8U A14G A42C,< 1e-05 s⁻¹,< 1e-05 s⁻¹,–,< 1e-05 s⁻¹,–
U31A U69C,0.000182 ± 6.5e-05 s⁻¹,0.000243 ± 4.5e-05 s⁻¹,0.000515 ± 0.00012 s⁻¹,–,0.0039 ± 0.0012 s⁻¹
A6G C10U A39U,< 1e-05 s⁻¹,< 1e-05 s⁻¹,–,< 1e-05 s⁻¹,< 1e-05 s⁻¹
G32U G43U G44U G60A,< 1e-05 s⁻¹,–,< 1e-05 s⁻¹,< 1e-05 s⁻¹,–
G9A A14G G32U U65A,< 1e-05 s⁻¹,–,–,< 1e-05 s⁻¹,< 1e-05 s⁻¹
C10G C16G C34U G43C A52C U55C,< 1e-05 s⁻¹,–,–,–,< 1e-05 s⁻¹
U31C G40A G59U,< 1e-05 s⁻¹,–,< 1e-05 s⁻¹,< 1e-05 s⁻¹,< 1e-05 s⁻¹
G35U A48C,< 1e-05 s⁻¹,–,–,< 1e-05 s⁻¹,< 1e-05 s⁻¹
C10U G41U U56C C70U,< 1e-05 s⁻¹,–,–,–,–
A6G U54G U57C,< 1e-05 s⁻¹,–,–,–,< 1e-05 s⁻¹
G13A G35A,< 1e-05 s⁻¹,< 1e-05 s⁻¹,< 1e-05 s⁻¹,< 1e-05 s⁻¹,–
C11G A36G G40C,< 1e-05 s⁻¹,< 1e-05 s⁻¹,< 1e-05 s⁻¹,< 1e-05 s⁻¹,< 1e-05 s⁻¹

Variant,self-cleavage kobs at 40 uM GlcN6P (glucosamine-6-phosphate [1]),self-cleavage kobs at 160 uM GlcN6P (glucosamine-6-phosphate [2]),self-cleavage kobs at 640 uM GlcN6P (glucosamine-6-phosphate [3]),self-cleavage kobs at 2500 uM GlcN6P (glucosamine-6-phosphate [4]),self-cleavage kobs at 10000 uM GlcN6P (glucosamine-6-phosphate [5])
C11U G44C G60U,< 1e-05 s⁻¹,–,–,–,< 1e-05 s⁻¹
C16A G43A,< 1e-05 s⁻¹,–,–,–,–
G51C U55G,< 1e-05 s⁻¹,< 1e-05 s⁻¹,< 1e-05 s⁻¹,< 1e-05 s⁻¹,< 1e-05 s⁻¹
C10U U65C,< 1e-05 s⁻¹,–,–,–,< 1e-05 s⁻¹
G7U C16G,< 1e-05 s⁻¹,–,< 1e-05 s⁻¹,–,< 1e-05 s⁻¹
C11A G51A,< 1e-05 s⁻¹,–,< 1e-05 s⁻¹,–,< 1e-05 s⁻¹
C10A U47G G63A,< 1e-05 s⁻¹,–,–,–,< 1e-05 s⁻¹
G37U C58U G63A,< 1e-05 s⁻¹,–,–,–,–
A15G G62U,< 1e-05 s⁻¹,–,–,–,< 1e-05 s⁻¹
A39C G63U,< 1e-05 s⁻¹,–,< 1e-05 s⁻¹,–,< 1e-05 s⁻¹
G37C A42C,< 1e-05 s⁻¹,< 1e-05 s⁻¹,–,< 1e-05 s⁻¹,–
G44A G63A,< 1e-05 s⁻¹,< 1e-05 s⁻¹,< 1e-05 s⁻¹,< 1e-05 s⁻¹,–
C34U U55G C71U,< 1e-05 s⁻¹,–,–,–,–
A42G U55G,0.00175 ± 0.00035 s⁻¹,–,–,–,0.0243 ± 0.0042 s⁻¹
G60C C67A C71U,< 1e-05 s⁻¹,–,–,–,–
A33C G38A,< 1e-05 s⁻¹,< 1e-05 s⁻¹,< 1e-05 s⁻¹,< 1e-05 s⁻¹,< 1e-05 s⁻¹
G9U U45G C50G,< 1e-05 s⁻¹,< 1e-05 s⁻¹,< 1e-05 s⁻¹,–,< 1e-05 s⁻¹
U54A C67G,8.43e-05 ± 1.3e-05 s⁻¹,0.000213 ± 4.1e-05 s⁻¹,0.000297 ± 5.3e-05 s⁻¹,0.000126 ± 2.2e-05 s⁻¹,0.00147 ± 0.00055 s⁻¹
A15U A42G G62U,< 1e-05 s⁻¹,–,–,< 1e-05 s⁻¹,< 1e-05 s⁻¹
G43U C50U U55G,< 1e-05 s⁻¹,–,< 1e-05 s⁻¹,< 1e-05 s⁻¹,–
C8G G9A A39U U47G C68U,< 1e-05 s⁻¹,–,–,–,–
U31C G63C,< 1e-05 s⁻¹,< 1e-05 s⁻¹,< 1e-05 s⁻¹,–,< 1e-05 s⁻¹
